Data reported in publication PMC6409689, “Characteristics of the First Protein Tyrosine Phosphatase with Phytase Activity from a Soil Metagenome” (Genes, 2019).

Columns and labels:
[1] = test system: O=[N+]([O-])c1ccc(OP(=O)(O)O)cc1; assay: purified protein; details: pH 5.6, 45 °C, printed kcat, Km and kcat/Km do not agree
Pho16B = Pho16B (uncultured organism, UniProt A0A3G1QTG4); assay: phosphate release, ammonium molybdate assay at […] nm; Michaelis-Menten fit; details: pH 5.6, 45 °C; printed kcat, Km and kcat/Km do not agree
Sequence of Pho16B (A0A3G1QTG4 1-376): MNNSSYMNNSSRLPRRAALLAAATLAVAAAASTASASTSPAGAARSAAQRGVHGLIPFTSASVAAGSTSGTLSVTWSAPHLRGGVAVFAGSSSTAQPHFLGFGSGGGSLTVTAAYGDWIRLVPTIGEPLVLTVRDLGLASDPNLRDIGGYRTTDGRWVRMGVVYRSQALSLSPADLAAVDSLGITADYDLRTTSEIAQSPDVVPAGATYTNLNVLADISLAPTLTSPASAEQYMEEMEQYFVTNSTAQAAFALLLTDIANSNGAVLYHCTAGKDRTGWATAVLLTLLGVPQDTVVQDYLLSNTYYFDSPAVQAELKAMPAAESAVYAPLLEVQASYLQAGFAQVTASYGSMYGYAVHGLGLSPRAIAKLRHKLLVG

| Substance | Km [1] | Km (Pho16B) |
| --- | --- | --- |
| Pho16B (uncultured organism) | 1026 ± 140 µM | – |
| Naphthyl phosphate | – | 966 ± 180 µM |
